Assay results reported in patent US20250051821.
Where a chain is given by its changes, count along the chain named.

T1: IFF05588
T1 chain: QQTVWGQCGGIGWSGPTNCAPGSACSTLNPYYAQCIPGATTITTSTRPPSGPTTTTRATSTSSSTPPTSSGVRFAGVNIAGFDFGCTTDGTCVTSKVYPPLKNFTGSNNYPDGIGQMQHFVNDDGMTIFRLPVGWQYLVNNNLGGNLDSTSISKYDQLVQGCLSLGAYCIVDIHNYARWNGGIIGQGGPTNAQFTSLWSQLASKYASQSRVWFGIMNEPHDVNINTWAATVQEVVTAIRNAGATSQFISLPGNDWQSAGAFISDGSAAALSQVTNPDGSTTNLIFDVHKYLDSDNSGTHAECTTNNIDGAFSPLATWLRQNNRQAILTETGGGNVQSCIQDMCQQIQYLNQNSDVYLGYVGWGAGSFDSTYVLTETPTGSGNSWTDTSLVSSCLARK

T2: IFF07399
T2 chain: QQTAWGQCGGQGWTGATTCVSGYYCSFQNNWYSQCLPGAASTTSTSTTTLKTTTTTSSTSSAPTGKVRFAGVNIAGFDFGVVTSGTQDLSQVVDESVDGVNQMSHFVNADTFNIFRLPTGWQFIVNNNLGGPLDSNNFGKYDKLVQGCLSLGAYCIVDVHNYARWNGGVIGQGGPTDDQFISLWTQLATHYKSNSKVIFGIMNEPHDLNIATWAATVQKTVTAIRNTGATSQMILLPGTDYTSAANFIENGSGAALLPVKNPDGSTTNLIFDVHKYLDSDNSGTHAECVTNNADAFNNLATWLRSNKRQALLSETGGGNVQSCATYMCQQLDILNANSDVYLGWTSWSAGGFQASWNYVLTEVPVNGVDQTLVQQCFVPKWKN

B1: IFF21372 (protein)
chain: QNLGKPVLFTDGLSPHVDASFWAHLNPTQSTWDQWGWGWIPQSCFDAANSNNVSPYDFEVFNVHYTDCGTAWVFCRHHSASLSQIDMIDLFGRLPVHERQWIRHVVAVPGGGSAYELNADVVFQGPVGTPSVFQHEVGHAVDFYKNGFQSSGTSQFLNAIQQDSCVPDDYANSNNVEDYTQVGVLSLYEIVNPGGLDPIGANWRCLVNQKNVLDGFQRDNMIPGGVCDRRWADSTIVKMGPAVPRVKRGPVGPIPQPAGLPVPGPSKAGPDVYKNLVFNATEKRNAETRQAAWQKAAKGAEA
B2: IFF21344 (protein)
chain: KLDKPIIQPNFPGGGLASLGQGLLNNLSPTQSTSDNWGAGWIPADCKSLVQGAGLSPFDVTPFNIHYTDCSQTWTFCRHKDSPLSQTDIIDLFGRVPVRMRDFIRHYVFIPGATSAGSSGDNTLMVGNVDITVFLHEIGHSLDSHAFDPSYGVPFSTSNVWISNYNLDSAVTDSYAQTSQQENFAQETVVSVYDKVVPGGIGTIQPNWQAIFHQYATLQGYIGNTIIPGGTCVNRLTDSQPVTMGNSAKFRRGLGPKPTVSLSPDVKEIKPIPMSDSITMTTFDEFGKANGTYVIHL
B3: IFF21345 (protein)
chain: B2 chain with V153A, T157N, V160I, N224D
B4: IFF21374 (protein)
chain: QRLNKPALTPNLDYLEQGNIDNLHPTHSTWDKWGPGWIPADCKSIAQNEGKNPDDFEIYNVHYDDCSDAWVFCRHKDSNVDLVTTIDIFGRLPVKMRSWVRHVITIPGDSWAYNSNGNIAFFGTTSSSMDVAIHETGHSLDLLGAYWGKTFSDSSTWLDNYNQDPNVPDEYAQTNQVENVAQNTVVGVYDKVVPGGFGSVQPNWHNIFHQYATLQWGAGDQIIPGGTCDRHLQNSETVPTGNSALAFNAVNRPDTSLKGNYSNIVTDFKEFSTRGNCRI
B5: IFF21376 (protein)
chain: QTLDKPALTPDLDYLEQGAIDNLAPTQSTNDQWGSGWIPSDCKDIANNEGKNPDDFEIYNVHYDDCDDAWVFCRHKDTPTDLITTIDIFGRLPVAMRSWVRHVLTIPGDNYAYNSNGNIAFFGTTSGIMDVAIHETGHSLDLLGAYGDQLSSSQDWLDNYNQDSNVPDNYAQTNQIENVEQNTVVSVYDKVVPGGFGSAQPNWNNIFHQYATLQGKAGDQIIPGGSCDRHLVNSETVSTSDSAAAAMVDAVDKPVTSFKGNYTKILKTHAKFNTKESCYFGN
B6: IFF21361 (protein)
chain: DLLRPEIDTVFADGLGPLDQPLVDNLPLTSYTLNQWAPGWIPADCKAMIEGQNMSATEMTVWSVAYADCVDPWVMCQHPSAELNLTAMIDLFGRLPVKMRSLVRHLAAIPGRPWAYNSGTTGRISVFAHEVGHSMDYHGYFNDTRGQFSLSSLWLDNFAKDSGVADYYANTDQGENHSQEVVVALFDANVPGGLGSVTGNWSAILHQYATIQGFVGDGGDTLTPGGACSHRHNNSAAVPMTTEDAAQGPPPDVELTGPVHVYAFKPMEPVANATVVKEDGVAAPMVVKVF
B7: IFF21347 (protein)
chain: KLDKPVIQPNFPGGGLASLGQGLLDNLKPTQSTSDVWGAGWIPADCKSLVQGAGLSPNDITPFNIHYTDCSQTWTFCRHKDSPLSQTDIIDLFGRVPVRMRDYIRHYVFIPGNKSAGSSGDNTLMVGDVDITVFLHEIGHSLDSHAFDPSYGVPFSTGNVWISNYNQDSAVTDDYAQSSQQENFAQETVVSVYDKNVPGGIGNIQPNWQAIFHQYATLEGYIGDTIIPGGTCVNRLTDSQPVTMSNSAKFRRNLGPKPTVSLSPDVKEIKAIPMADSIKMTSFDEHGKPNGTYVIQL
B8: IFF21346 (protein)
chain: B7 chain with K1N, D174S, N253T, A271P, Q296N
B9: IFF21358 (protein)
chain: GNPDKPEVNPHIPYDRLENDLRNNLHPTQSTWDYWGAGWIPQGCKDLANTYHLNPADFTIFNVHYTDCSASWTFCRHKNAGASEIDMIDIFGRLPVRMRSYLRHLVATPGLNDGAAAWTWSSGDCVVESAPNLATLVHEVSHSLDWHALPQYQQPFSSSSIWQDNYNQDSATPTGYGRTNWMENFAETGMVGVYDKAVPGGIGNIEPNWNAIFHQYATYQGYLGDKIIAGGSCANRFDDTPPVAMSNSAKFKITSAKPETGIDFAGKNITQIIPSKEFEGLYIKG
B10: IFF21366 (protein)
chain: QNLNKPVLFSDGLSPHVDSVFFQHLTPTQSTWDKWGWGWIPQACLSVVQGTQFSPYDIEVYNVHYTDCASAVVMCRHNQAQMSIINMIDAFGRIPIHDRQWTQHILALPAGGCSAGTGGAVTTFYGPCYIPSVFVHELTHTLDAFVNDKTGSTGAVHVYSTTSSYLNSVNQDSCVPDGYANTSPQEDYAQTSVLALYEKVNPGGLDPIGPWRCLVNAKNNLDSIIGQELTPGGSCTHRWADSAIVCMGPAAGCTSSKRGFEGRRGLKPVGPKPNPANKKGDPLVLDLLPDLASVVNAKITDFSHLSSNHTAGIEATIRINAWNKAAGKETVPVPKA
B11: IFF21370 (protein)
chain: DDTPPFKPVISPAFDFYGTLEDGLRANLAPTQSTWDQWGEGWIPDDCKWYAEYYGYAANEFEVFNVKYTDCDEAWIMCRHKQATVSQTGMIDLFGRLPLGMREYVKHVVMAPETKANTVASSYRGTIAFDQDYFSIYNLVHETGHCMDGTAALDVFPDGISSSSIWQDNYNQDSAVVRDYARSSWVENFAETGTVAVYDKVVPGGIGPIQPNWEQIYHQYATYNGYLSDIITPGAKDKCTQRRENSETVAMGASSRIMRSSPPDTSFKSDVKVMPAGANDEFFFEHSRDH

Assays:
IFF05588 = biological target: T1, IFF05588
IFF07399 = biological target: T2, IFF07399

Protein	Relative late peak area (centered, scaled, averaged over 5, 10 and 15 min) (IFF05588)	Relative late peak area (centered, scaled, averaged over doses, 24 h; sample diluted 10-fold) (IFF05588)	Gel mobility change (SDS-PAGE) (IFF07399)	further results
B1	1.62	1.18	–	Relative late peak area (reverse phase chromatography, 24 h) (IFF05588): 0.6
B2	1.36	0.79	yes	–
B3	1.82	1.24	–	–
B4	–	–	yes	Relative late peak area (reverse phase chromatography, 24 h) (IFF05588): 0.51
B5	-0.99	–	–	Relative late peak area (centered, scaled, averaged over doses, 24 h; sample diluted 1-fold) (IFF05588): -1.61
B6	-1.05	–	–	Relative late peak area (centered, scaled, averaged over doses, 24 h; sample diluted 1-fold) (IFF05588): -1.64; modification of IFF05588 (reverse phase chromatography, 5 to 15 min) (IFF05588): All samples containing proteins related to IFF05497 except seven (IFF21355, IFF21358, IFF21356, IFF21361, IFF21370, IFF21357 and IFF21353) are able to modify IFF05588 under these reaction conditions; modification of IFF05588 (reverse phase chromatography, 24 h, doses) (IFF05588): All samples containing proteins related to IFF05497 except two (IFF21376 and IFF21361) are able to modify IFF05588 under these reaction conditions. Close comparison of the chromatograms for these two samples show differences between buffer and sample chromatograms indicative of activity in the sampl
B7	1.74	1.14	–	Relative late peak area (reverse phase chromatography, 24 h) (IFF05588): 0.59
B8	0.52	–	–	Relative late peak area (centered, scaled, averaged over doses, 24 h; sample diluted 2-fold) (IFF05588): 1.07
B9	-1.04	–	yes	Relative late peak area (centered, scaled, averaged over doses, 24 h; sample diluted 1-fold) (IFF05588): -1.46; modification of IFF05588 (reverse phase chromatography, 5 to 15 min) (IFF05588): All samples containing proteins related to IFF05497 except seven (IFF21355, IFF21358, IFF21356, IFF21361, IFF21370, IFF21357 and IFF21353) are able to modify IFF05588 under these reaction conditions
B10	0.34	–	yes	Relative late peak area (centered, scaled, averaged over doses, 24 h; sample diluted 2-fold) (IFF05588): 1.02
B11	-1.05	–	–	modification of IFF05588 (reverse phase chromatography, 5 to 15 min) (IFF05588): All samples containing proteins related to IFF05497 except seven (IFF21355, IFF21358, IFF21356, IFF21361, IFF21370, IFF21357 and IFF21353) are able to modify IFF05588 under these reaction conditions
